According to publication PMC8636562, “Mounting, structure and autocleavage of a type VI secretion-associated Rhs polymorphic toxin” (Nature Communications, 2021):

Legend:
[1] = target: T1, Rhs1 D1338N Y1351A Y1375A, C-terminally FLAG-tagged (catalytic-null mutant used for cryo-EM) (Photorhabdus laumondii (P. luminescens …, UniProt Q7N9I0 1-1471, D1338N | Y1351A | Y1375A)); test: cryo-EM structure; EagR-Strep/Rhs1-FLAG (D1338N, Y1351A, Y1375A) complex purified by StrepTrap and Superose 6; single particle, Talos Arctica 200 kV; 3.72 Å unmasked map, 3.17 Å masked on the Rhs1 shell; EagR dimer homology model fitted in low-resolution density; details: both partners purified
T1 construct: Rhs1 (Plu0353) of Photorhabdus laumondii with D1338N (no C-terminal autocleavage) and Y1351A, Y1375A (no toxicity); atomic model built for residues 272-1357; also called Rhs1^FL; source: E. coli BL21(DE3), co-purified with EagR (StrepTrap HP, Superose 6)
T1 sequence (looked up): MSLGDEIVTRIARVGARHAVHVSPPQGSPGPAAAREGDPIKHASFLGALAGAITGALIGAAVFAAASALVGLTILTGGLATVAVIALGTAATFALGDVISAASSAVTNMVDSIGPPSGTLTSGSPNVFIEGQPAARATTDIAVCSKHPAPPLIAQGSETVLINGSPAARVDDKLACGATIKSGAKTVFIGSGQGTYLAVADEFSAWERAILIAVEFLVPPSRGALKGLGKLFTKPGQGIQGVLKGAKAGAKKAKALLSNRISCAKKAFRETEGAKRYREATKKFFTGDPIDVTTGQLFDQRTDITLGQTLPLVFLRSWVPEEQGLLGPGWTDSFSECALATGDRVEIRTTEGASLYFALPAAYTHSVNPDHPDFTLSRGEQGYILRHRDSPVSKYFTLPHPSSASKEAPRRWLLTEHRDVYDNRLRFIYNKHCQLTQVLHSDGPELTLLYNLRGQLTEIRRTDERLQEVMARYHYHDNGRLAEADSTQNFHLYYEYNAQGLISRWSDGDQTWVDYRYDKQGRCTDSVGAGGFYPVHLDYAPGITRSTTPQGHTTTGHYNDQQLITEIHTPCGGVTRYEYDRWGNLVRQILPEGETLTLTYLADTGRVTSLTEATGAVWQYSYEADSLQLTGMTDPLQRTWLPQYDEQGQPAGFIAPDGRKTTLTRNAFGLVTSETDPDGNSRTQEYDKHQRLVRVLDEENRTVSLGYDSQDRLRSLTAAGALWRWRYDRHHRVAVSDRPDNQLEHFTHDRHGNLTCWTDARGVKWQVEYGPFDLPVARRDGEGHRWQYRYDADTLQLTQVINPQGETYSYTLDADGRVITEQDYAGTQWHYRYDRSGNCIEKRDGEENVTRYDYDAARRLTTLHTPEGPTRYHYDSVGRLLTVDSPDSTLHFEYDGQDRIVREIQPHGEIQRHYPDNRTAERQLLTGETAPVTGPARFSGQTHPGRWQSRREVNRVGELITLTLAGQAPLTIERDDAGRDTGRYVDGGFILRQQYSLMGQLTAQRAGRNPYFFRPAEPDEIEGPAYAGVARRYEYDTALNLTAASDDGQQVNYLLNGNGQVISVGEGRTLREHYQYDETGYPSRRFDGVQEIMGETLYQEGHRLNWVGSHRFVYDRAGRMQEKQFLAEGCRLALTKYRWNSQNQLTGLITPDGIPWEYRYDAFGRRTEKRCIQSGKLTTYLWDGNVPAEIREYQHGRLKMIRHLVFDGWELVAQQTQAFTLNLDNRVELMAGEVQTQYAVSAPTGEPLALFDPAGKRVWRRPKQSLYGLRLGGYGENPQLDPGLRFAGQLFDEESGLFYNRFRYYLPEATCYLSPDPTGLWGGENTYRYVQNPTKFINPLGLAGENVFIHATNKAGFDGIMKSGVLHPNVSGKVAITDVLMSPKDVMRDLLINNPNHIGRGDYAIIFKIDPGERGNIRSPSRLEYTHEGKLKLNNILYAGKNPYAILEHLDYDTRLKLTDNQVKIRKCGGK

[2] = target: the molecule itself; test: as above

B1: Photorhabdus laumondii EagR chaperone (Plu0354), C-terminally Strep-tagged (natural protein)
chain: MENTTYQMNEGSLAIPGNWRDESMNVFVLPDDSGINLVVSRTPVPAGMDNPAYYEQTLEQFCTHLPGYQEHQRSEITLSQQPARRLDYQWTSPEGDMYQTVILQIRGPLLLTFNLTSPAPFEAGQRDTLLAIVHSFQAA
notes: Eag (DUF1795) family chaperone EagR of Photorhabdus laumondii, Plu0354; also called ^STEagR; EagR^ST; source: E. coli BL21(DE3), co-produced, in total cell extract; also purified in complexes (Strep-Tactin resin; StrepTrap HP and Superose 6); not shown: Strep-tag, C-terminal, kept
B1: binds [1]; binds [2].
